In US9383366B2, “Blue fluorescent protein and methods of use thereof” (WiSys Technology Foundation, Inc., priority 2013, dated 2016):

Legend:
[1] = Spectral properties (absorption and fluorescence emission) of Sandercyanin protein; assay type: physicochemical
hydra = experiment: Injection of Sandercyanin protein into hydra, fluorescence localization; assay type: in vivo; details: injected into hydra
Excerpt: We are currently imploring the localization of Sandercyanin in model organisms.

[2] = on excitation at 380 nm and 630 nm; cited from earlier work
[3] = band maximum used for Stokes shift

B1: Sandercyanin protein: native blue fluorescent bili-binding lipocalin protein from walleye mucus, SEQ ID NO: 1 (protein)
chain: QFIKPGRCPKPAVQEDFDAARYLGVWYDIQRLPNKFQKGECATATYSLSPGVGFSVFNRERLANGTIKSVIGSAIAEDPCEPAKLQFFHENAAPVPYWVLSTDYDNYALVYSCINLGASHAAYASIVSRQPTLPEETIKKLQGTMSSFGVGVDTLLTTNQDAAYCSAMNQ
modifications: Sandercyanin
absorption [1, 3]: 375 nm
emission [1, 3]: 675 nm
Stokes shift ([1]; difference between absorption and emission band maxima): ~300 nm
fluorescence after injection (hydra): showed fluorescence on the surface of tentacles
emission maxima [2]: 678 nm
